Measurements: PMC3985343 (The Laryngoscope, 2013)

Molecular target: Wildtype His6-Gαi1 (UniProt P63096 1-354)
Assay: SPR

Sequence of Wildtype His6-Gαi1 (P63096 whole entry): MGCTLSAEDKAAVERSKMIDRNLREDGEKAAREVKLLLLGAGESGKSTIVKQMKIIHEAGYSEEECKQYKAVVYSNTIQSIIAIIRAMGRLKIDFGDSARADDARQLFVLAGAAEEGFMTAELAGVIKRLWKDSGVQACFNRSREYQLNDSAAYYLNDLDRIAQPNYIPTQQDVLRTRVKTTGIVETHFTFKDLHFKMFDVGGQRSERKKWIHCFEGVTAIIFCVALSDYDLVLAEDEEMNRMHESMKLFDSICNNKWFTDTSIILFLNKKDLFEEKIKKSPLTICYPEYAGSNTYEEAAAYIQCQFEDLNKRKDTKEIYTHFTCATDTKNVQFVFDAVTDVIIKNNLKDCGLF

Kd: 57 nM
B1: RGS21 (regulator of G protein signaling-21), wildtype, His6 tag cleaved (natural protein, human, UniProt Q2M5E4 1-152, looked up)
chain: MPVKCCFYRSPTAETMTWSENMDTLLANQAGLDAFRIFLKSEFSEENVEFWLACEDFKKTKNADKIASKAKMIYSEFIEADAPKEINIDFGTRDLISKNIAEPTLKCFDEAQKLIYCLMAKDSFPRFLKSEIYKKLVNSQQVPNHKKWLPFL
